From paper PMC12134178

Biological target: mCerulean3-BaxΔCTS
Experiment: FRET or BRET; quantitative fast FLIM-FRET (qF3) in live HCT116 DKO cells stably expressing the donor ^CBaxΔCTS (1 to 3 µM) and transiently the Venus acceptor (0 to 50 µM); 10 µM Q-VD-OPH; fit to a Hill equation with h = 1; apparent Kd

| Kd [µM] | Substance |
| --- | --- |
| 17 | Venus-tBid(Nes2-BH3 C-ter) chimera (from UniProt P70444 1-81; P70444 101-195) |
| 16.3 | Venus-tBid (domain or fragment) |
